Measurements taken from US11685791B2, “Antibody binding specifically to N-terminal region of lysyl-tRNA synthetase exposed on cell membrane” (Zymedi Co., Ltd., priority 2017, dated 2023).

Tests used:
[1] = target: T1, extracellularly exposed KRS N-terminal region (Homo sapiens, UniProt Q15046); test: Immunofluorescence staining of converted IgGs; format: cell-based; details: WT-KRS membrane localization induced by laminin treatment
T1 construct: expressed in transfected cells; host or cells: A549
Experimental: (§1) Immunofluorescence was performed to investigate whether the scFv clones selected in Example <1-5> actually bound to the KRS N-terminal region exposed on the cell membrane. In order to make a phenomenon in which KRS is exposed on the membrane, KRS-T52D mutant (active mutant) was used. […] After incubation for 24 h, the cells were incubated using serum-free media (RPMI 1640 media) at 37° C. for 1 h. Thereafter, the cells were treated with 10 μg/ml laminin (L2020; Sigma) and then incubated at 37° C. for 1 h.
(§2) The prepared samples were washed with PBS (4° C.), fixed by the treatment with 4% paraformaldehyde for 10 min, and then washed. The samples were blocked with CAS block for 10 min, and treated with the scFv and Myc antibodies for 2 h. Thereafter, the unbound antibodies were washed out, and incubated with secondary antibodies for 1 h in a dark room. DAPI staining was performed for 10 min before mounting.
(§3) To investigate whether the IgGs constructed in the present invention actually bound to the region of KRS exposed on the cell membrane, immunofluorescence was performed. Immunofluorescence staining was performed by the same method as described in Example <1-6> by using N3 IgG and N5 IgG as representatives.

[2] = target: T2, extracellularly exposed KRS N-terminal region (Homo sapiens, UniProt Q15046, T52D); test: Immunofluorescence staining of converted IgGs; format: cell-based; details: T52D-KRS (active mutant, myc tagged KRS)
T2 construct: expressed in transfected cells; host or cells: A549
Experimental: as §1, §2, §3

[3] = system: mouse breast cancer 4T-1 cells; test: In-vivo cancer metastasis model (lung metastasis)
Experimental: Since KRS can accelerate cell migration through 67LR associated with cancer metastasis, tumor (cancer) animal models were constructed using mouse breast cancer 4T-1 cells (Korean Cell Line Bank), which are well metastasizable to the lung. Orthotopic breast cancer animal models were constructed by injecting 4×10^4 4 T1 cells into the fat pad of six 7-week old BALB/cAnCr mice (Doo Yeol Biotech).
The cancer was injected into the mammary fat pad, and after 10 days (Day 10), cancer tissues were resected from the fat pad. After one day (Day 11), N3 IgG (10 mg/kg) was administered twice a week for two weeks at intervals of 3 days (a total of four times, Days 11, 14, 18, and 21) via tail vein i.v. injection, and the same dose of control mock IgG (Thermo #31154) was also administered. One week after the completion of the entire antibody dosing schedule, that is, 28 days after cancer injection, the mice were sacrificed to take lung tissue. Upon autopsy of lung tissue, the lung was inflated by injection of a saline solution into the bronchus through a syringe, collected, and then stored in Bouin's solution (Sigma #HT10132) for 24 h. Thereafter, the metastasis nodules in each lobe of the lung were counted through a microscope.
It has been known in the foregoing literature “Dae Gyu Kim et al., (2014)” that the YH16899 compound has an effect on cancer metastasis inhibition by suppressing the interaction between 67LR and KRS. Then, the cancer metastasis inhibitory effect was compared between YH16899 and N3 IgG, the antibody of the present invention. The construction of in-vivo tumor models and the observation of lung metastasis condition were carried out by the same method as in Example <3-3>. YH16899 was orally administered at 100 mpk every day. N3 IgG was intravenously injected at difference concentrations (1 mpk, 10 mpk) through mouse tails.

[4] = system: human KRS N-terminal peptide fragments (F1-F5); test: SPR (Biacore T200) of immobilized N3 IgG against human KRS N-terminal peptide fragments; format: binding
Experimental: First, N3 IgG antibody was immobilized to Biacore T200 (GE Healthcare) equipped with Series S sensor chip CM5 (GE Healthcare) by using an amine coupling kit (GE Healthcare). Then, the peptides shown in Table 4 below dissolved in PBS solution at corresponding concentrations were allowed to flow for 60 s. Then, PBS was allowed to flow for 5 min. Then, the binding ability was analyzed by Biacore T200 Evaluation software v2.0 (GE Healthcare).

[5] = system: mouse KRS N-terminal peptide fragments (mF1-mF5); test: SPR (Biacore T200) of immobilized N3 IgG against mouse KRS N-terminal peptide fragments; format: binding
Experimental: (§4) In the same manner as the experimental method described in Example 4-1 above, N3 IgG antibody was immobilized on the chip by using an amine coupling kit (GE Healthcare). Then, the peptides shown in Table 4 above dissolved in PBS solution at corresponding concentrations were allowed to flow for 60 s, and PBS was allowed to flow for 5 min. Then, the binding ability was analyzed by Biacore T200 Evaluation software v2.0 (GE Healthcare).

[6] = system: rat KRS N-terminal peptide fragments (rF1-rF5); test: SPR (Biacore T200) of immobilized N3 IgG against rat KRS N-terminal peptide fragments; format: binding
Experimental: as §4

[7] = system: pulmonary arterial hypertension (PAH) models; test: Echocardiography in PAH model; format: in vivo, rat; details: MCT PAH rats, five animals per group
From the text: To induce PAH in seven-week-old SD rats (Orient Bio), 60 mpk of monocrotaline (MCT) was subcutaneously injected. […] All antibodies were i.v. injected twice a week, and sildenafil was orally administered every day.

[8] = system: monocyte/macrophage infiltration into lung tissues (CD68); test: IHC staining of CD68 in lung tissues of PAH model; format: in vivo, rat; details: PAH rats, 1 mpk or 10 mpk, 3 weeks
Experimental: The collected lungs were fixed in paraformaldehyde (PFA) according to the ordinary procedure, and then paraffin-infiltrated and embedded through washing, dehydration, and clearing. The rat lung tissue paraffin blocks were micro-sectioned to a thickness of 6 μm, and slides were manufactured. Thereafter, staining was performed as below. The sample was first treated with xylene for 5 min three times, treated with 100% ethanol, 95% ethanol, 90% ethanol, and 70% ethanol, and DW in that order for 2 min, and washed with PBS for 5 min. After 0.3% H2O2 treatment, the sample was washed with PBS for 5 min twice. The sample was immersed in 0.01 M citrate buffer, heated, and washed with PBS-T (0.03% Tween 20). Thereafter, the sample was blocked (2% BSA & 2% goat serum in PBS) at room temperature for 30 min. The sample was stained with anti-CD68 antibody (1:200, ED1 clone, Abcam) at 4° C. overnight. The sample was washed with PBS-T for 5 min three times, and then treated with polymer-HRP anti-mouse envision kit (DAKO) at 4° C. for 1 h. The sample was washed with PBS-T three times, and then color-developed by the treatment with DAB substrate buffer and DAB chromogen 20. The stained tissue was treated with Mayer's hematoxylin (Sigma) for 1 min, and then treated with 70% ethanol, 90% ethanol, 95% ethanol, and 100% ethanol in that order for 2 min each twice. […]

[9] = N3 IgG immobilized, peptides in PBS

T2 sequence (Q15046 whole entry T52D): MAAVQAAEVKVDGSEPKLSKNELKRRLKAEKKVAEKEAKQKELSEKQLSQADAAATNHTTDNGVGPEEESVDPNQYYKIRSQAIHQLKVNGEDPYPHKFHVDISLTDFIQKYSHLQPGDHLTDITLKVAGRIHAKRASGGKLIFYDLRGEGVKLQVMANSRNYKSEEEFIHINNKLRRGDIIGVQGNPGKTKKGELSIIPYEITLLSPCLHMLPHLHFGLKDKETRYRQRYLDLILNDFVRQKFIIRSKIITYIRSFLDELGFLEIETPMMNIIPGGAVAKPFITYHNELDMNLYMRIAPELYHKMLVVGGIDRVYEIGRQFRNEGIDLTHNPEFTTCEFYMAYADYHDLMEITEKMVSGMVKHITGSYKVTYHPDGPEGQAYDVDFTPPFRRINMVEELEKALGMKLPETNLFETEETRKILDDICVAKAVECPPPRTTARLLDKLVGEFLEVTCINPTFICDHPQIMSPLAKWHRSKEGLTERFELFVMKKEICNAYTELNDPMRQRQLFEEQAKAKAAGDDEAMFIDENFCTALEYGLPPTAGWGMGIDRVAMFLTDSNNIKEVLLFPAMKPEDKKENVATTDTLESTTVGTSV
T1 sequence (Q15046 whole entry): as the sequence (Q15046 whole entry T52D) above, with D52T counted along it

B1: N3 IgG: IgG converted from N3 scFv; VH SEQ ID NO: 49, VL SEQ ID NO: 51; binds KRS N-terminal region (antibody, V domains shown)
VH: EVQLLESGGGLVQPGGSLRLSCAASGFTFSSYDMSWVRQAPGKGLEWVSAISYDNGNTYYADSVKGRFTISRDNSKNTLYLQMNSLRAEDTAVYYSARMALDFDYWGQGTLVTVSS
VL: QSVLTQPPSASGTPGQRVTISCTGSSSNIGSNYVTWYQQLPGTAPKLLIYDNSNRPSGVPDRFSGSKSGTSASLAISGLRSEDEADYYCASWDDSLSAYVFGGGTKLTVL
binding to extracellularly exposed KRS N-terminal region (immunofluorescence) [1]: favorably bound specifically | binding to extracellularly exposed KRS N-terminal region (immunofluorescence) [2]: favorably bound | lung metastasis nodules ([3]; 10 mg/kg i.v. twice a week for two weeks, vs mock IgG control): significantly suppressed | laminin receptor expression in metastasis nodule sites of lung tissue ([3]; 10 mg/kg i.v., control vs N3 IgG treatment group): significantly large amount of laminin receptors were expressed in the metastasis nodule sites in control compared with the group treated with the antibody | lung nodule count ([3]; 1 mpk and 10 mpk i.v.): significantly reduced in a dose-dependent manner | cancer metastasis inhibition compared with YH16899 (100 mpk) ([3]; 1 mpk i.v.): significantly inhibited cancer metastasis compared with YH16899 | binding to human KRS N-terminal epitopes F1-F5 (SPR) [4, 9]: bound to epitopes F1, F2, F3, and F4, but not epitope F5 | rank of binding ability among human epitopes [4, 9]: the binding ability to epitope F4 was strongest, and the binding ability to F3, F2, and F1 was stronger in that order | main binding site in the KRS N-terminal region ([4]; amino acid positions): positions 15 to 29 | relative binding ability, epitope F3 vs F1 (mouse) [5]: stronger binding ability to epitope F3 than F1 | binding to mouse KRS N-terminal epitopes F1-F5 (SPR) ([5]; F2 and F4 data not shown): bound to epitopes F1, F2, F3, and F4 of human (h), mouse (m), and rat (r) but not epitope F5 | relative binding ability, epitope F3 vs F1 (rat) [6]: stronger binding ability to epitope F3 than F1 | binding to rat KRS N-terminal epitopes F1-F5 (SPR) ([6]; F2 and F4 data not shown): bound to epitopes F1, F2, F3, and F4 of human (h), mouse (m), and rat (r) but not epitope F5 | D-shaped left ventricle finding indicating pressure overload in the right ventricle [7]: not observed | monocyte/macrophage infiltration into lung tissues (CD68 IHC) [8]: explicitly reduced
